Laboratory results as given in the supplement of paper PMC9170038.

Test system: K4 kissing-loop RNA reporter
Test: apparent KD of K4 kissing-loop reporter; higher = weaker reporter binding
Conditions: Eterna round: R107
Method: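 RNA-MaP round R107: designed RNA switches with theophylline, tryptophan, arginine or FMN aptamers are transcribed on-chip within common flanks. They are titrated with a labelled K4 kissing-loop RNA reporter in RNA-MaP buffer (100 mM Tris pH 7.5, 80 mM KCl, 4 mM MgCl2), without ligand or with the indicated ligand. Median apparent KD per design.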

[1] = input ligand: theophylline 20 uM
[2] = input ligand: tryptophan 2.4 mM
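Note: bound reporter read as fluorescence of individual clusters on recovered sequencing chips by microscopy, with normalized cluster intensities fitted with a binding model.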

Sequence	apparent KD of K4 kissing-loop reporter (input ligand: FMN 200 uM)	apparent KD of K4 kissing-loop reporter (input ligand: arginine 13.2 mM)	apparent KD of K4 kissing-loop reporter (input ligand: none)	apparent KD of K4 kissing-loop reporter [1]	apparent KD of K4 kissing-loop reporter [2]
AAUUAAGUGACGGCCGCCACUAGGGUGAUUUUUUUGUUUGAGUGAUGUUUUGAUGUUUGAUUUUGUAGGACCGGGUUAGGUGAUG [juhmullin]	332 nM	295 nM	426 nM	404 nM	252 nM
AAUUAAUACAGAAGGAGCGUGUUUUUUAAUUUAUUUUCAUGAUCGAGUGAUGUUCGAUAUACACAGGUAGGUCGCUGUAUAUUUA [JR_SSArginiB_Sub008]	98.8 nM	142 nM	113 nM	139 nM	92.1 nM
AAUUCAGUGAUGUUGGAAGGCAGGAGGGAUACCAGCGGAAAUAAACGCCCUUGGCAGCCCAAAUAUCCCAAAUAGAUAAUAAUUU [Same State - Theophylline A (Freestyle 1)]	581 nM	381 nM	610 nM	607 nM	563 nM
AAUUUAUUAACUGAUACCAGACUUAAUUAAUUGUAAAUUACUAGUGAUGUUAGUGAUUCUGUCCCUUGGCAGCAGUAUUUAUUAA [JR_ExcTheophyB_Sub011]	98.3 nM	120 nM	113 nM	139 nM	92.5 nM
ACACUUUACGUAGGAUAUGCGACGAGUGAUGUUCGUCAGGCGGCUUUAGAUUAUACAAGCCGCCUAGCAGAAGGACGGGCAGUGU [Araar]	127 nM	157 nM	172 nM	158 nM	170 nM
ACAGUACCGGGAAGGAGCGUGAAUGAGAAUGGAUAUAGUGAUGUUAUGUAUACGAACGAAUCGCAGGUAGGUCGCCCGGAUCCCU [SSArgB.aD]	563 nM	507 nM	650 nM	722 nM	529 nM
ACAUUAGCGAGUGAUGUUCGCUAAGACGAAGGAGCGCUCGCGAGAGCAGGUAGGUCGCGUCUAGUGUCACUGUACUAAAUAGUGA [Arg A SS t12]	159 nM	164 nM	180 nM	183 nM	169 nM
ACGAAUCCAGCGGCCGCCACUAUUCGAUGAGUGAUGUUUAGGAGUAGAUCAUACCGCCGUGGUAAUAGGACCGGGCUCUUUGUAG [theeternabot_exclusion_KL_Trp_B_36]	289 nM	129 nM	201 nM	193 nM	207 nM
ACGAUCAUGUCGGCCGCCACUGAGAGUAGUGAUGUUACUCUUUUCCUUUAGUUAUUAUAUUUUAUCAGGACCGGGACAUGUUCGU [JR_ExcTryptoB_Sub022]	88.3 nM	66.7 nM	72.3 nM	69.6 nM	77.9 nM
ACGCGCGCGAGUGAUGUUCGGAGCGGCUGGCAGGAUAUGUAGCAAUGCAGAAGGGUCGUGGCGGUGGGCGCGCAAGCGGCUGCCG [#2 Exclusion - FMN A Attempt #12 (HarryS)]	187 nM	318 nM	396 nM	399 nM	371 nM
ACGUAGUUCUAGGAUACCAGCCAAGGAGGGUAGGACAAAAGUCCUGUAGCCAGUGAUGUUGGCCCUUGGCAGCCUAGAACUACGA [Omei KL Theo B Exc B v3]	162 nM	183 nM	138 nM	139 nM	151 nM
ACGUGCACUAGUGAUGUUGGAAAAUAGGAAGGAGCGGGCGAAAGCCCAGGUAGGUCGCCUAAUAGCACGAGCCACGAAAGUGGCA	376 nM	514 nM	645 nM	774 nM	522 nM
ACGUGCCCAGUGAUGUUGGAUAAAUAUGAAGGAGCGUGCGAAAGCACAGGUAGGUCGCAUAAUAGCACGAGCCACGAAAGUGGCA [#SwitchBubble 7 #K4Early #Sliding]	179 nM	200 nM	181 nM	245 nM	134 nM
ACUAUCGAAAGAUAGUUCCCAGAGCUAGUAGAGGAUAUCUGGAAACAGAGAAGGCUACAAGAGUGAUGUUCUUCUAGCUUUGGGA	403 nM	291 nM	316 nM	337 nM	349 nM
AGAACUGUCUGAGAUACCAGCCAAGGAGUGAUGUUCCGGCUCGACGAAACGUCGAGCCAUGGCCCUUGGCAGCUCAGACAGUUCA [Omei KL Theo B SS A v2]	249 nM	116 nM	195 nM	191 nM	102 nM
AGACUACCACACUGUCAAUAGACAGUGGACUAGGAUAUGCUGAUAAGCAGAAGGAGUGAUGUUCCCAGGUAGUCAAUAAAAUAAU [FmnAX 13 G28+C66]	215 nM	205 nM	225 nM	322 nM	246 nM
